Experimental findings from US20140219992 are described below.

Data set [1] deals with serum-derived protein (Zucker rat).
For data set [2], the target named is T1, fluorogenic peptide substrate IX, Mca-K-P-L-G-L-Dpa-A-R-NH2.
T1 chain: KPLGLAR

B1: wild-type human matrix metalloprotease 1 (hMMP-1), purified and trypsin-activated (protein)
chain: FVLTEGNPRWEQTHLTYRIENYTPDLPRADVDHAIEKAFQLWSNVTPLTFTKVSEGQADIMISFVRGDHRDNSPFDGPGGNLAHAFQPGPGIGGDAHFDEDERWTNNFREYNLHRVAAHELGHSLGLSHSTDIGALMYPSYTFSGDVQLAQDDIDGIQAIYGRSQNPVQPIGPQTPKACDSKLTFDAITTIRGEVMFFKDRFYMRTNPFYPEVELNFISVFWPQLPNGLEAAYEFADRDEVRFFKGNKYWAVQGQNVLHGYPKDIYSSFGFPRTVKHIDAALSEENTGKTYFFVANKYWRYDEYKRSMDPGYPKMIAHDFPGIGHKVDAVFMKDGFFYFFHGTRQYKFDPKTKRILTLQKANSWFNCRKN
On to B1, for which the “enzymatic activity against the fluorogenic peptide substrate after incubation in 10% Zucker rat serum, 1 mM Ca^2+, 25° C.” value in data set [1] is recorded as “The activity of MMP-1 in 1 mM Ca^2+ buffer was unaffected by incubation with serum over the course of the study”. Moreover, in data set [2], the KM (µM), enzyme kinetics at 1 mM Ca^2+, 37° C. amounted to 20.6 µM and the KM (µM), enzyme kinetics at 10 mM Ca^2+, 37° C. worked out at 21.1 µM.

B2: MMP-1 mutant GVSK (G159V/S208K), purified and trypsin-activated (protein)
chain: FVLTEGNPRWEQTHLTYRIENYTPDLPRADVDHAIEKAFQLWSNVTPLTFTKVSEGQADIMISFVRGDHRDNSPFDGPVGNLAHAFQPGPGIGGDAHFDEDERWTNNFREYNLHRVAAHELGHSLGLKHSTDIGALMYPSYTFSGDVQLAQDDIDGIQAIYGRSQNPVQPIGPQTPKACDSKLTFDAITTIRGEVMFFKDRFYMRTNPFYPEVELNFISVFWPQLPNGLEAAYEFADRDEVRFFKGNKYWAVQGQNVLHGYPKDIYSSFGFPRTVKHIDAALSEENTGKTYFFVANKYWRYDEYKRSMDPGYPKMIAHDFPGIGHKVDAVFMKDGFFYFFHGTRQYKFDPKTKRILTLQKANSWFNCRKN
For the protein B2, in data set [1], the “enzymatic activity lost after 15 minutes in 10% Zucker rat serum, 1 mM Ca^2+, 25° C.” value is “After 15 minutes of serum incubation, one-third of the activity of GVSK in 1 mM Ca^2+ was lost”; the “enzymatic activity remaining after 30 minutes in 10% Zucker rat serum, 1 mM Ca^2+, 25° C.” value is “less than 50% of activity remained after 30 minutes”; the “enzymatic activity remaining after 2 hours in 10% Zucker rat serum, 1 mM Ca^2+, 25° C.” value was “only approximately 17% of the activity of GVSK in 1 mM Ca^2+ remained”; the “enzymatic activity remaining after 2 hours in 10% Zucker rat serum, 10 mM Ca^2+, 25° C.” value was “approximately 74% of the original activity remaining by the 2 hour time point”. In data set [2], the KM (µM), enzyme kinetics at 1 mM Ca^2+, 37° C. stood at 16.5 µM and the KM (µM), enzyme kinetics at 10 mM Ca^2+, 37° C. was 11 µM.
